From PMC4929722

Key:
[1] = molecular target: BTas-Y (bovine foamy virus transactivator Tas of clone pBS-BFV-Y, D108) (bovine foamy virus (BFV3026)); test: cross-linking; lysates of transfected HEK293T cells (20 mM Tris-Cl pH 7.5, 150 mM EDTA, 0.5 mM Na3VO4, 1 % NP-40) mixed with 0.01 % glutaraldehyde in 20 mM triethanolamine pH 8.2, 10 mM NaCl, 30 min at room temperature; 12 % SDS-PAGE and immunoblot with anti-BTas
[2] = molecular target: BTas-B (bovine foamy virus transactivator Tas of clone pBS-BFV-B, N108) (bovine foamy virus (BFV3026)); test: as above

Substance: BTas-Y (bovine foamy virus transactivator Tas of clone pBS-BFV-Y, D108) (natural protein)
- stoichiometry N [1]: 2

Substance: BTas-B (bovine foamy virus transactivator Tas of clone pBS-BFV-B, N108) (natural protein)
- stoichiometry N [2]: 2
